The target of experiment [1] is GPC3 on the surface of hepatic cancer cell lines (SK-Hep1-GPC3 transfectant, HepG2, Huh7, Hep3B, SNU398) (human) (UniProt P51654). Description: FACS, HepG2 cells, 1 ug antibody; lower left panel (Human naive library). On the technique in general: Flow cytometry measures light scatter and fluorescence of single cells or particles in a stream.
Experiment [2] shares this target. The experiment is described as follows: FACS, SK-Hep1-GPC3 #9 cells, 1 ug antibody; lower left panel.
The target is the same in experiment [3]. Description: FACS, SK-Hep1-GPC3 #9 cells, 1 ug antibody; upper right panel.
The target is the same in experiment [4]. Description: FACS, HepG2 cells, 1 ug antibody; upper right panel (Synthetic library).

B1: clone GX263 (scFv, V domains shown)
VH: EVQLVESGGGLVKPGGSLRLSCAASGFTFSSYSMNWVRQAPGKGLEWVSSISSSSSYIYYADSVKGRFTISRDNAKNSLYLQMNSLRAEDTAVYYCARVTPYYYYGMDVWGQGTTVTVSS
VL: QSVVTQPPSVSAAPGQKVTISCSGSSSNIGNNYVSWYQQLPGTAPKLLIYDSNKRPPGIPDRFSGSKSGTSATLGITGLQTGDEADYYCGAWDSSLSAVVFGGGTKLTVLG
For B1, the Mean, FL2-H in experiment [1] amounted to 6.06; in experiment [2] it was 3.71.

B2: clone GN328 (scFv, V domains shown)
VH: EVQLVESGGGLVQPGGSLRVSCAASGFTFSTAWMDWVRQAPGKGLEWVANINPDGSEKHYVDSVKGRFTVSRDNAKNSVYLHMNNLRAEDTAVYYCSKALDYWGQGTTVTVSS
VL: DIQMTQSPSTLSASVGDRVTITCRASQNINTWLAWYQQKPGKAPEVLIYEASSLESGVPPRFSGSGSGTEFTLTISSLQPDDSATYYCQQYNTYSPTFGQGTKLEIKR
With B2, the Mean, FL2-H in experiment [1] was determined as 4.24; in experiment [2] it was 4.17.

B3: clone GX184 (scFv, V domains shown)
VH: QLQLQESGPGLVKPSETLSLTCAVSGGSISSSNNYWGWIRQPPGKGLEWIGSIFYSGSTYYNPSLKSRVTISVDTSKNQFSLKLSSVTAADTAVYYCARLPTGTPGFYFDYWGQGTLVTVSS
VL: SYELTQPPSVSKGLRQTATLTCTGNSNNVGNQGAAWLQQHQGHPPKLLSYRNNNRPSGISERFSASRSGNTASLTITGLQPEDEADYYCSAWDSSLSAWVFGGGTKLTVLG
As to B3, the Mean, FL2-H in experiment [1] is 5.39; in experiment [2], 3.99.

B4: clone GS006 (scFv, V domains shown)
VH: EVQLLESGGGLVQPGGSLRLSCAASGFTFSGYSMSWVRQAPGKGLEWVSAISPGGGSKYYADSVRGRFTVSRDNSKNTLYLQMNSLRAEDTAVYYCARYRVQKSAKNVYSSNGMDVWGQGTLVTVSS
VL: QSVLTQPPPASGTPGQRVTISCSGSSSNIGNNAVNWYQQLPGTAPKLLIYYDSNRPSGVPDRFSGSKSGTSASLAISGLRSEDEADYYCGAWDSSLSAYVFGGGTKLTVLG
Consider B4, for which the results for the Mean, FL2-H in experiment [3] and in experiment [4] were 3.65 and 3.41, respectively.

B5: clone GX247 (scFv, V domains shown)
VH: QVQLVQSGAEVKKPGASVKVSCKASGYTFTSYYMHWVRQAPGQGLEWMGIINPSGGSTSYAQKFQGRVTMTRDTSTSTVYMELSSLRSEDTAVYYCARTRKGSGYSYGYGMDVWGQGTTVTVSS
VL: SYELTQPPSVSVSPGQTASITCSGDKLGNKYVSWYQQKPGQSPVLVIYQDNKRPSGIPERFSGSNSGNTATLTISGTQAMDEAGYYCQTWDSSVVFGGGTKLTVLG
B5: the Mean, FL2-H amounted to 5.53 in experiment [1] and 6.07 in experiment [2].

B6: clone GS010 (scFv, V domains shown)
VH: EVQLLESGGGLVQPGGSLRLSCAASGFTFSNYSMSWVRQAPGKGLEWVSVISPSSGSIYYADSVKGRFTISRDNSKNTLYLQMNSLRAEDTAVYYCARYRVRQLKHTRSYADAMDVWGQGTLVTVSS
VL: QSVLTQPPSASGAPGQRVTISCSGSSSNIGSNAVSWYQQLPGTAPKLLIYANSHRPSGVPDRFSGSKSGTSASLAISGLRSEDETDYYCASWDSSLSGYVFGGGTKLTVLG
In the case of B6, the Mean, FL2-H in experiment [3] was 4.53; in experiment [4], 4.72.

B7: clone GS004 (scFv, V domains shown)
VH: EVQLLESGGGLVQPGGSLRLSCAVSGFTFSNYSMSWVRQAPGKGLEWVSAISPGSSNKYYADSVKGRFTISRDNSKNTLYLQMNSLRAEDTAVYYCARYRVWAHSASSSYSNAMDVWGQGTLVTVSS
VL: QSVLTQPPSASGTPGQRVTISCSGSSSNIGNNDVSWYQQLPGTAPKLLIYSDSQRPSGVPDRFSGSKSGTSASLAISGLRSEDEADYYCGSWDDSLNGYVFGGGTKLTVLG
B7: the Mean, FL2-H in experiment [3] is 4.11; in experiment [4], 4.38.

B8: clone GS015 (scFv, V domains shown)
VH: EVQLLESGGGLAQPGGSLRLSCAASGFTFSDYSMSWVRQAPGKGLEWVSAISPDGGSKYYADSVKGRFTISRDNSKNTLYLQMNSLRAEDTAVYYCARFRVIKLRAGWYSANGMDVWGQGTLVTVSS
VL: QSVLTQPPSASGTPGQRVTISCSGSSSNIGNNDVSWYQQLPGTAPKLLIYYNSKRPSGVPDRFSGSKSGTSASLAISGLRSEDEADYYCGAWDDSLNGYVFGGGTKLTVLG
In the case of B8, the Mean, FL2-H in experiment [3] was 5.34; in experiment [4], 3.64.

B9: clone GS014 (scFv, V domains shown)
VH: EVQLLESGGGLVQPGGSLRLSCAASGFTFSNYAMSWVRQAPGKGLEWVSVISPNSGSNTYYADSVKGRFTISRDNSKNTLYLQMNSLRAEDTAVYYCARPRILRRRVDHSYSYAMDVWGQGTLVTVSS
VL: QSVLTQPPSASGTPGQRVTISCTGSSSNIGNNYVSWYQQLPGTAPKLLIYSNSHRPSGVPDRFSGSKSGTSASLAISGLRSEDEADYYCGTWDYSLSGYVLGGGTKLTVLG
As to B9, the Mean, FL2-H in experiment [3] was 4.39; in experiment [4], 5.66.

B10: clone GN414 (scFv, V domains shown)
VH: QVQLVQSGAEVKKPGASVKVSCKASGYTFSTYGITWVRQAPGQGLEWMGRITPNNGVTDYAQKFQGRVTMTRDTSISTAYMELSSLRSDDSAVYYCAREIGSSSWKLLDPWGQGTMVTVSS
VL: QAVLTQPSSVSVSPGQTASITCTGNSNNVGYEGAAWVQQYQGHPPKLLSDRNHNRPSGISERFSASRSGNTASLTITGLQSEDEADYYCSAWDSSLSEWVSGGGTKLTVLG
Consider B10, for which the Mean, FL2-H came to 6.9 in experiment [1] and 3.75 in experiment [2].

B11: clone GS002 (scFv, V domains shown)
VH: EVQLLESGGGLVQPGGSLRLSCAASGFTFSGYSMSWVRQAPGKGLEWVSSISPGGSSTYYADSVKGRFTISRDNSKNTLYLQMSSLRAEDTAVYYCARYRVWHMTTGDYYSNAMDVWGQGTLVTVSS
VL: QSVLTQPPSASGTPGQRVTISCTGSSSNIGSNAVSWYQQLPGTAPKLLIYDDNKRPSGVLDRFSGSKSGTSASLAISGLRSEDEADYYCGTWDDSLSGYVFGGGTKLTVLG
With B11, the figures for the Mean, FL2-H in experiment [3] and in experiment [4] were 4.17 and 4.71, respectively.

Source of the values: patent US20180346592A1.
